The record followed here is patent US12421510B2, “Peptide, a complex and a method for treating cancer” (TECHNION RESEARCH & DEVELOPMENT FOUNDATION LIMITED, priority 2018, dated 2025).

“Also recorded” adds a separate entry of the source.

Assay type in all cases: biochemical
Test [1] has as its target T1, p105 (Homo sapiens, UniProt P19838).
T1 sequence (P19838 1-968): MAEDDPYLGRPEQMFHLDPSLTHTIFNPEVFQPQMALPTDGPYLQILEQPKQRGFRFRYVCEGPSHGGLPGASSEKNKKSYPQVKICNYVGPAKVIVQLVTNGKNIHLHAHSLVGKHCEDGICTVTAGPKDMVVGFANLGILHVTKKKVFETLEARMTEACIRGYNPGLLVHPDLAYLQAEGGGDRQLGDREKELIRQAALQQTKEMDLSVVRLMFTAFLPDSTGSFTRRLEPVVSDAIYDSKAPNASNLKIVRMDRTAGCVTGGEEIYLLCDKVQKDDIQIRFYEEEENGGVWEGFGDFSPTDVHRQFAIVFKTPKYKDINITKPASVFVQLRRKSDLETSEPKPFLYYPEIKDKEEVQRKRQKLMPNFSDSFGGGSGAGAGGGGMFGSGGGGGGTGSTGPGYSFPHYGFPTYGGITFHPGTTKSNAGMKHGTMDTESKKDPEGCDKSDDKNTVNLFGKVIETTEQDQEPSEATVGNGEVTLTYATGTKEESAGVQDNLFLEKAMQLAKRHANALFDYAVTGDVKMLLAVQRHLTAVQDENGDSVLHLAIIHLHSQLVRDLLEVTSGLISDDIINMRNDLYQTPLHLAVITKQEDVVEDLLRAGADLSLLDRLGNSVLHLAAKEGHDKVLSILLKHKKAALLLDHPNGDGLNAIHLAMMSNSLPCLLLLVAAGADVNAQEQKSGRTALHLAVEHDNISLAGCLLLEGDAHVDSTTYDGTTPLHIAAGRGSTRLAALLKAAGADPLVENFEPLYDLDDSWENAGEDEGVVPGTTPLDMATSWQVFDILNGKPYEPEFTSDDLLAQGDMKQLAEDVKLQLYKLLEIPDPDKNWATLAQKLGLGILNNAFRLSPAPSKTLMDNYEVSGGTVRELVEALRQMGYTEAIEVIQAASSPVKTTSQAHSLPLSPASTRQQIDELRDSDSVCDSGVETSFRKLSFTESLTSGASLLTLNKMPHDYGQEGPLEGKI
Description: Competition by synthetic KPC1-derived peptides of p105 ubiquitination by KPC1-Δ1-967 in reconstituted cell-free system. The conditions noted are these: compared to 6 amino acids ILVRLW peptide. The source says:
Presented is the change (in %) of unconjugated p105 remained following addition of increasing concentrations of the peptides (compared to a system to which a peptide was not added; lane 3). Amid denotes N-terminal amidation and Ac denotes C-terminal acetylation.
Presented is the change (in %) of unconjugated p105 remained following addition of increasing concentrations of the peptides (compared to a system to which a peptide was not added; lane 2).
To further confirm that 7 amino acids WILVRLW of KPC1-Δ1-967 (SEQ ID. No. 5) are involved in the interaction with p105, an experiment was designed in which the binding of p105 to the ligase was competed with a synthetic peptides derived from KPC1.

Test [2] deals with T1, p105. Put plainly: Processing of p105 by purified proteasome in cell free system in presence of KPC1 deleted species. The conditions noted are these: 35S-labeled p105 (FIG. 7). The source says: In vitro translated and ^355-labeled p105 was processed by purified proteasome (lanes 2-7) in the presence of purified KPC1-Δ1-967-6xHIS (lanes 4-5) or KPC1-Δ1-974-6xHIS (lanes 6-7) as indicated. Lane 8 represents processing of p105 in the system that contained Fraction 2. Cell extract is fractionated over the anion-exchange resin diethylaminoethyl (DEAE)-cellulose, where ubiquitin is eluted in Fraction I, the unabsorbed, flow-through material that contains also certain E2 enzymes. Fraction II, the high salt eluate, contains E1, the remaining E2s, all the E3s, and the 26S proteasome, but not free ubiquitin. Processing is the amount of p50 produced in the reaction. All values relate to 100%, which is the set point for processing of p105 in a system that lacks proteasome and KPC1 (lane 1).

Test [3] has as its target T1, p105. Put plainly: Ubiquitination of p105 by purified KPC1 species in cell-free conjugation assay. To be noted: reconstituted cell-free system, in vitro translated 35S-labeled p105, purified Ub, E1, E2, UbAl, ATP. The source says:
FIGS. 4A and 4B represent western blots showing in vitro ubiquitination of p105 by mutated species of KPC1: FIG. 4A: In vitro translated and ^35S-labeled p105 was ubiquitinated by purified KPC1-Δ1-967-6xHIS (lanes 2-4) or KPC1-Δ1-974-6xHIS (lanes 5-7) in a reconstituted cell-free system. 4B) In vitro translated and ^355-labeled p105 was ubiquitinated by purified KPC1-Δ1-967-6xHIS (lanes 2,5,6), KPC1-Δ1-974-6xHIS (lane 3), KPC1-Δ967-1043-6xHIS (lane 4), WILVRLW-KPC1-Δ1-1039-6xHIS (lanes 7-8) or WILVRLW-KPC1-Δ1-1061-6xHIS (lanes 9-10) in a reconstituted cell-free system.
In order to assess if the interaction between two proteins leads to the conjugation of the substrate p105, ubiquitination reaction was performed in cell free system. The conjugation reaction was carried out in the presence of purified Ub, E1, E2, UbAl, ATP and KPC1—either wild-type or different mutant species. Samples were resolved via SDS-PAGE and the 35S-labeled p105 and its adducts were visualized using autoradiography. […] In addition, the shorter versions of KPC1 in which the 7 amino acids sequence were brought closer to RING domain, the active site of the enzyme were prepared. Both truncated KPC1 proteins that harbor the 7 amino acid sequence, WILVRLW-KPC1-Δ1-1039 (SEQ ID. No. 6) and WILVRLW-KPC1-Δ1-1061 (SEQ ID. No. 7), modified p105 (FIG. 4B, lanes 7-10).

With “WILVRLW [synthetic 7 amino acids peptide, positions 968-974 of KPC1]”, the “inhibition of ubiquitination of p105 by KPC1-Δ1-967” value in the test with p105 [1] (non-modified peptides (FIG. 6)) is “inhibited ubiquitination of p105 by KPC1-Δ1-967; also recorded: inhibits ubiquitination of p105”; with p105 [1] (peptides modified by N-terminal amidation and C-terminal acetylation (FIG. 5)), “inhibited ubiquitination of p105 by KPC1-Δ1-967; also recorded: inhibits ubiquitination of p105”.

B1: KPC1-Δ1-967-6xHIS: purified 6xHIS KPC1 deleted species that has the sequence of WILVRLW (protein)
chain: WILVRLWRGCGFGYRYTRLPHLLKTKLEDANLPSLQKPCPSTLLQQHMADLLQQGPDVAPSFLNSVLNQLNWAFSEFIGMIQEIQQAAERLERNFVDSRQLKVCATCFDLSVSLLRVLEMTITLVPEIFLDWTRPTSEMLLRRLAQLLNQVLNRVTAERNLFDRVVTLRLPGLESVDHYPILVAVTGILVQLLVRGPASEREQATSVLLADPCFQLRSICYLLGQPEPPAPGTALPAPDRKRFSLQSYADYISADELAQVEQMLAHLTSASAQAAAASLPTSEEDLCPICYAHPISAVFQPCGHKSCKACINQHLMNNKDCFFCKTTIVSVEDWEKGANTSTTSSAA
modifications: left off: small tags and cut ends
Take B1: the “processing of p105 by purified proteasome” value with p105 [2] is on record as “stimulates the processing of p105 by purified proteasome”.

B2: WILVRLW-KPC1-Δ1-1061: truncated KPC1 with the 7 amino acid sequence brought closer to RING domain, SEQ ID NO: 7 (protein)
chain: WILVRLWFVDSRQLKVCATCFDLSVSLLRVLEMTITLVPEIFLDWTRPTSEMLLRRLAQLLNQVLNRVTAERNLFDRVVTLRLPGLESVDHYPILVAVTGILVQLLVRGPASEREQATSVLLADPCFQLRSICYLLGQPEPPAPGTALPAPDRKRFSLQSYADYISADELAQVEQMLAHLTSASAQAAAASLPTSEEDLCPICYAHPISAVFQPCGHKSCKACINQHLMNNKDCFFCKTTIVSVEDWEKGANTSTTSSAA
B2: the “ubiquitination of p105” value in the test with p105 [3] is reported as “modified p105”.

B3: KPC1-Δ1-974-6xHIS: purified 6xHIS KPC1 deleted species lacking the 7 amino acids responsible for binding to p105 (protein)
chain: RGCGFGYRYTRLPHLLKTKLEDANLPSLQKPCPSTLLQQHMADLLQQGPDVAPSFLNSVLNQLNWAFSEFIGMIQEIQQAAERLERNFVDSRQLKVCATCFDLSVSLLRVLEMTITLVPEIFLDWTRPTSEMLLRRLAQLLNQVLNRVTAERNLFDRVVTLRLPGLESVDHYPILVAVTGILVQLLVRGPASEREQATSVLLADPCFQLRSICYLLGQPEPPAPGTALPAPDRKRFSLQSYADYISADELAQVEQMLAHLTSASAQAAAASLPTSEEDLCPICYAHPISAVFQPCGHKSCKACINQHLMNNKDCFFCKTTIVSVEDWEKGANTSTTSSAA
modifications: left off: small tags and cut ends
As for B3, the “processing of p105 by purified proteasome” value in the test with p105 [2] was “could not stimulate processing”.
